One block for each substance: values may come before it. Starred links: 1 amine or outer side, 2 acyl side, 3 side chain; linkers in the order of their positions; H or OH if unused. Non-standard residues stand in square brackets, D forms with d. No end group written: not given here. *: point of attachment. Ala(piperidin-4-yl) = O=C([C@H](CC1CCN([*:3])CC1)N[*:1])[*:2]; hArg = N=C(N)NCCCC[C@H](N)C(=O)O; tBuAla = CC(C)(C)C[C@H](N)C(=O)O; 3Pal = N[C@@H](Cc1cccnc1)C(=O)O; 4Pal = N[C@@H](Cc1ccncc1)C(=O)O; Cha = N[C@@H](CC1CCCCC1)C(=O)O; Suc = O=C(CCC(=O)[*:2])[*:1]; dIva = CC[C@@](C)(N)C(=O)O; Isobutyryl = CC(C)C(=O)*; Iva = CC[C@](C)(N)C(=O)O; Nle = CCCC[C@H](N)C(=O)O; Orn = NCCC[C@H](N)C(=O)O; Nva = CCC[C@H](N)C(=O)O; Abu = CC[C@H](N)C(=O)O; Aib = CC(C)(N)C(=O)O; Inp = O=C(O)C1CCNCC1; Bz = O=C(c1ccccc1)*; Ahx = NCCCCCC(=O)O
Assays:
human Y2 receptor [1] = target: T1, human Y2 receptor (Homo sapiens, UniProt P49146); experiment: Receptor Binding Assay (RBA) for Human Y2, [125I]-PYY displacement on hY2R/CHO membrane fraction; details: IC50 of test compound/IC50 of PYY(3-36) (PYY(3-36) taken as 1)
T1 construct: expressed in transfected cells; membrane fraction
T1 sequence (P49146 1-381): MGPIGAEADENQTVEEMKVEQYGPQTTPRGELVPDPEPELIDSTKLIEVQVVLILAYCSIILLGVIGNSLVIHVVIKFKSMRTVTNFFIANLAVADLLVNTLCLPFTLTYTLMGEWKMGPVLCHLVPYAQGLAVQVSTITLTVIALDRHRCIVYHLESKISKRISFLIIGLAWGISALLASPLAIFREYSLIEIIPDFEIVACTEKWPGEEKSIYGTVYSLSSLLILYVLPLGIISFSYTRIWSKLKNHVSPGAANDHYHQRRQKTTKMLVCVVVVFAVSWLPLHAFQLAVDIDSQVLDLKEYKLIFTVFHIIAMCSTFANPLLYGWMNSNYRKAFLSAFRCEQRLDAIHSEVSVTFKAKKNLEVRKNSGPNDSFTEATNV
Outline: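 hY2R stably expressed in CHO/dhfr− cells; membrane fraction prepared from cells disrupted in 10 mM NaHCO3, 5 mM EDTA buffer with protease inhibitors. Binding read as displacement of [125I]-PYY.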

human Y2 receptor [2] = target: T1, human Y2 receptor; experiment: Human Y2 Receptor G Protein Binding Assay (GBA), [35S]GTPγS; assay type: biochemical; details: EC50 of test compound/EC50 of PYY(3-36) (PYY3-36 taken as 1), hY2R/CHO membrane fraction
Outline: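 Agonism measured as [35S]GTPγS binding, read by GF/C filtration and scintillation counting after 120 min at room temperature, using human Y2 membranes at 1 μg protein/mL in pH 7.4 Tris/MgCl2/NaCl/GDP buffer. Compound serially diluted 100 μM–1 nM; EC50 normalized to PYY(3-36) (ratio = compound/PYY).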

- RBA IC50 Ratio (human Y2 receptor [1]): 1.1
- GBA EC50 Ratio (human Y2 receptor [2]): 1.7
Substance: Ac-[D-Pro24, Pya(4)26, Cha27,36, Aib28,31, Lys(Me2)30]-PYY(23-36) [compound No. 264]

- RBA IC50 Ratio (human Y2 receptor [1]): 0.36
- GBA EC50 Ratio (human Y2 receptor [2]): 0.79
Substance: Ac-[D-Pro24, Pya(4)26, Cha27,36, Aib28,31, Har30]-PYY(23-36) (Ac-S[dP]R[4Pal][Cha][Aib]N[hArg][Aib]TRQR[Cha]-NH2; SMILES CC(=O)N[C@@H](CO)C(=O)N1CCC[C@@H]1C(=O)N[C@@H](CCCNC(=N)N)C(=O)N[C@@H](Cc1ccncc1)C(=O)N[C@@H](CC1CCCCC1)C(=O)NC(C)(C)C(=O)N[C@@H](CC(N)=O)C(=O)N[C@@H](CCCCNC(=N)N)C(=O)NC(C)(C)C(=O)N[C@H](C(=O)N[C@@H](CCCNC(=N)N)C(=O)N[C@@H](CCC(N)=O)C(=O)N[C@@H](CCCNC(=N)N)C(=O)N[C@@H](CC1CCCCC1)C(N)=O)[C@@H](C)O) [compound No. 277]

- RBA IC50 Ratio (human Y2 receptor [1]): 45
- GBA EC50 Ratio (human Y2 receptor [2]): 30
Substance: Isobutanoyl-[Abu26, Cha27,36, Gln28, Aib31]-PYY(25-36) (Isobutyryl-R[Abu][Cha]QNL[Aib]TRQR[Cha]-NH2; SMILES CC[C@H](NC(=O)[C@H](CCCNC(=N)N)NC(=O)C(C)C)C(=O)N[C@@H](CC1CCCCC1)C(=O)N[C@@H](CCC(N)=O)C(=O)N[C@@H](CC(N)=O)C(=O)N[C@@H](CC(C)C)C(=O)NC(C)(C)C(=O)N[C@H](C(=O)N[C@@H](CCCNC(=N)N)C(=O)N[C@@H](CCC(N)=O)C(=O)N[C@@H](CCCNC(=N)N)C(=O)N[C@@H](CC1CCCCC1)C(N)=O)[C@@H](C)O) [compound No. 100]

- RBA IC50 Ratio (human Y2 receptor [1]): 0.85
- GBA EC50 Ratio (human Y2 receptor [2]): 2.1
Substance: Ac-[D-Pro24, Pya(4)26, Cha27,36, Aib28, Lys30, Iva31]-PYY(23-36) (Ac-S[dP]R[4Pal][Cha][Aib]NK[Iva]TRQR[Cha]-NH2; SMILES CC[C@](C)(NC(=O)[C@H](CCCCN)NC(=O)[C@H](CC(N)=O)NC(=O)C(C)(C)NC(=O)[C@H](CC1CCCCC1)NC(=O)[C@H](Cc1ccncc1)NC(=O)[C@H](CCCNC(=N)N)NC(=O)[C@H]1CCCN1C(=O)[C@H](CO)NC(C)=O)C(=O)N[C@H](C(=O)N[C@@H](CCCNC(=N)N)C(=O)N[C@@H](CCC(N)=O)C(=O)N[C@@H](CCCNC(=N)N)C(=O)N[C@@H](CC1CCCCC1)C(N)=O)[C@@H](C)O) [compound No. 231]

- RBA IC50 Ratio (human Y2 receptor [1]): 13
- GBA EC50 Ratio (human Y2 receptor [2]): 8.6
Substance: Benzoyl-[Nva27, Cha28,36, Aib31]-PYY(25-36) (Bz-RH[Nva][Cha]NL[Aib]TRQR[Cha]-NH2; SMILES CCC[C@H](NC(=O)[C@H](Cc1c[nH]cn1)NC(=O)[C@H](CCCNC(=N)N)NC(=O)c1ccccc1)C(=O)N[C@@H](CC1CCCCC1)C(=O)N[C@@H](CC(N)=O)C(=O)N[C@@H](CC(C)C)C(=O)NC(C)(C)C(=O)N[C@H](C(=O)N[C@@H](CCCNC(=N)N)C(=O)N[C@@H](CCC(N)=O)C(=O)N[C@@H](CCCNC(=N)N)C(=O)N[C@@H](CC1CCCCC1)C(N)=O)[C@@H](C)O) [compound No. 103]

- RBA IC50 Ratio (human Y2 receptor [1]): 0.32
- GBA EC50 Ratio (human Y2 receptor [2]): 1.1
Substance: [Acp23, D-Pro24, Pya(4)26, Cha27,36, Aib28,31, Lys30]-PYY(23-36) (Ac-[Ahx][dP]R[4Pal][Cha][Aib]NK[Aib]TRQR[Cha]-NH2) [compound No. 304]

- RBA IC50 Ratio (human Y2 receptor [1]): 2.3
- GBA EC50 Ratio (human Y2 receptor [2]): 1.3
Substance: Ac-[Glu23, D-Pro24, Nle25, Pya(4)26, Cha27,28,36, Lys30, Aib31]-PYY(23-36) (Ac-E[dP][Nle][4Pal][Cha][Cha]NK[Aib]TRQR[Cha]-NH2; SMILES CCCC[C@H](NC(=O)[C@H]1CCCN1C(=O)[C@H](CCC(=O)O)NC(C)=O)C(=O)N[C@@H](Cc1ccncc1)C(=O)N[C@@H](CC1CCCCC1)C(=O)N[C@@H](CC1CCCCC1)C(=O)N[C@@H](CC(N)=O)C(=O)N[C@@H](CCCCN)C(=O)NC(C)(C)C(=O)N[C@H](C(=O)N[C@@H](CCCNC(=N)N)C(=O)N[C@@H](CCC(N)=O)C(=O)N[C@@H](CCCNC(=N)N)C(=O)N[C@@H](CC1CCCCC1)C(N)=O)[C@@H](C)O) [compound No. 172]

- RBA IC50 Ratio (human Y2 receptor [1]): 4
- GBA EC50 Ratio (human Y2 receptor [2]): 3.4
Substance: N-4-Pyridiniyl-[Pic(4)23, D-Pro24, Cha27,28,36, Aib31]-PYY(23-36) ([Inp][dP]RH[Cha][Cha]NL[Aib]TRQR[Cha]-NH2; not fully specified (N-terminus); printed as N-4-Pyridiniyl-[Pic(4)23, D-Pro24, Cha27,28,36, Aib31]-PYY(23-36)) [compound No. 125]

Second part, the substance before the results:

Substance: Isobutanoyl-[Abu26, Cha27,28,36, Pya(3)31]-PYY(25-36) (Isobutyryl-R[Abu][Cha][Cha]NL[3Pal]TRQR[Cha]-NH2; SMILES CC[C@H](NC(=O)[C@H](CCCNC(=N)N)NC(=O)C(C)C)C(=O)N[C@@H](CC1CCCCC1)C(=O)N[C@@H](CC1CCCCC1)C(=O)N[C@@H](CC(N)=O)C(=O)N[C@@H](CC(C)C)C(=O)N[C@@H](Cc1cccnc1)C(=O)N[C@H](C(=O)N[C@@H](CCCNC(=N)N)C(=O)N[C@@H](CCC(N)=O)C(=O)N[C@@H](CCCNC(=N)N)C(=O)N[C@@H](CC1CCCCC1)C(N)=O)[C@@H](C)O) [compound No. 82]
- RBA IC50 Ratio (human Y2 receptor [1]): 25
- GBA EC50 Ratio (human Y2 receptor [2]): 19

Substance: Isobutanoyl-[Abu26, Cha27,28,36, Gln30, Aib31]-PYY(25-36) (Isobutyryl-R[Abu][Cha][Cha]NQ[Aib]TRQR[Cha]-NH2; SMILES CC[C@H](NC(=O)[C@H](CCCNC(=N)N)NC(=O)C(C)C)C(=O)N[C@@H](CC1CCCCC1)C(=O)N[C@@H](CC1CCCCC1)C(=O)N[C@@H](CC(N)=O)C(=O)N[C@@H](CCC(N)=O)C(=O)NC(C)(C)C(=O)N[C@H](C(=O)N[C@@H](CCCNC(=N)N)C(=O)N[C@@H](CCC(N)=O)C(=O)N[C@@H](CCCNC(=N)N)C(=O)N[C@@H](CC1CCCCC1)C(N)=O)[C@@H](C)O) [compound No. 90]
- RBA IC50 Ratio (human Y2 receptor [1]): 19
- GBA EC50 Ratio (human Y2 receptor [2]): 22

Substance: Ac-[D-Pro24, Orn26, Cha27,28,36, Aib31]-PYY(23-36) (Ac-S[dP]R[Orn][Cha][Cha]NL[Aib]TRQR[Cha]-NH2; SMILES CC(=O)N[C@@H](CO)C(=O)N1CCC[C@@H]1C(=O)N[C@@H](CCCNC(=N)N)C(=O)N[C@@H](CCCN)C(=O)N[C@@H](CC1CCCCC1)C(=O)N[C@@H](CC1CCCCC1)C(=O)N[C@@H](CC(N)=O)C(=O)N[C@@H](CC(C)C)C(=O)NC(C)(C)C(=O)N[C@H](C(=O)N[C@@H](CCCNC(=N)N)C(=O)N[C@@H](CCC(N)=O)C(=O)N[C@@H](CCCNC(=N)N)C(=O)N[C@@H](CC1CCCCC1)C(N)=O)[C@@H](C)O) [compound No. 150]
- RBA IC50 Ratio (human Y2 receptor [1]): 4.2
- GBA EC50 Ratio (human Y2 receptor [2]): 2.2

Substance: Ac-[D-Pro24, Pya(4)26, Ala(4Pip)27, Aib28,31, Lys30, Cha36]-PYY(23-36) [compound No. 308] (Ac-S[dP]R[4Pal][Ala(piperidin-4-yl)][Aib]NK[Aib]TRQR[Cha]-NH2; SMILES CC(=O)N[C@@H](CO)C(=O)N1CCC[C@@H]1C(=O)N[C@@H](CCCNC(=N)N)C(=O)N[C@@H](Cc1ccncc1)C(=O)N[C@@H](CC1CCNCC1)C(=O)NC(C)(C)C(=O)N[C@@H](CC(N)=O)C(=O)N[C@@H](CCCCN)C(=O)NC(C)(C)C(=O)N[C@H](C(=O)N[C@@H](CCCNC(=N)N)C(=O)N[C@@H](CCC(N)=O)C(=O)N[C@@H](CCCNC(=N)N)C(=O)N[C@@H](CC1CCCCC1)C(N)=O)[C@@H](C)O)
- RBA IC50 Ratio (human Y2 receptor [1]): 17
- GBA EC50 Ratio (human Y2 receptor [2]): 11

Substance: 3-Carboxypropionyl-[Acp22, D-Pro24, Cha27,36, Leu(Me)28, Lys30, Aib31]-PYY(22-36) (Suc-[Ahx]S[dP]RH[Cha][tBuAla]NK[Aib]TRQR[Cha]-NH2; SMILES C[C@@H](O)[C@H](NC(=O)C(C)(C)NC(=O)[C@H](CCCCN)NC(=O)[C@H](CC(N)=O)NC(=O)[C@H](CC(C)(C)C)NC(=O)[C@H](CC1CCCCC1)NC(=O)[C@H](Cc1c[nH]cn1)NC(=O)[C@H](CCCNC(=N)N)NC(=O)[C@H]1CCCN1C(=O)[C@H](CO)NC(=O)CCCCCNC(=O)CCC(=O)O)C(=O)N[C@@H](CCCNC(=N)N)C(=O)N[C@@H](CCC(N)=O)C(=O)N[C@@H](CCCNC(=N)N)C(=O)N[C@@H](CC1CCCCC1)C(N)=O) [compound No. 185]
- RBA IC50 Ratio (human Y2 receptor [1]): 1.7
- GBA EC50 Ratio (human Y2 receptor [2]): 1.2

Substance: Ac-[D-Pro24, Pya(4)26, Cha27,36, D-Iva28, Lys30, Aib31]-PYY(23-36) (Ac-S[dP]R[4Pal][Cha][dIva]NK[Aib]TRQR[Cha]-NH2; SMILES CC[C@@](C)(NC(=O)[C@H](CC1CCCCC1)NC(=O)[C@H](Cc1ccncc1)NC(=O)[C@H](CCCNC(=N)N)NC(=O)[C@H]1CCCN1C(=O)[C@H](CO)NC(C)=O)C(=O)N[C@@H](CC(N)=O)C(=O)N[C@@H](CCCCN)C(=O)NC(C)(C)C(=O)N[C@H](C(=O)N[C@@H](CCCNC(=N)N)C(=O)N[C@@H](CCC(N)=O)C(=O)N[C@@H](CCCNC(=N)N)C(=O)N[C@@H](CC1CCCCC1)C(N)=O)[C@@H](C)O) [compound No. 234]
- RBA IC50 Ratio (human Y2 receptor [1]): 1.7
- GBA EC50 Ratio (human Y2 receptor [2]): 2.6

Source: patent US9260500B2, “Peptide and use thereof” (Takeda Pharmaceutical Company Limited, priority 2009, dated 2016)
